Experimental data as given in US20250314646, “SYSTEMS AND METHODS FOR ANALYTE DETECTION IN BIOLOGICAL SOLUTIONS” (eGlint, Inc., published 2025).

Columns and labels:
PDGF-BB [1] = target: T1, PDGF-BB (UniProt P01127 P01127:82-190); assay: fluorescence thermal melt in solution; Tm about 55 C unbound to about 65 C bound; 1x PBS, 1 mM MgCl2, 0.1 mg/ml BSA; details: chain copies: 2 (homodimer, inferred); label: 5' fluorescein, 3' Black Hole Quencher 1
Experimental: In one representative experiment, aptamer comprising a competent binding state and a dye pair (fluoresceine and black hole quencher) was measured for their persistence in the changed environment of temperature as described herein. […] PDGF-BB, bovine serum albumine (BSA), magnesium chrolide, and phosphate buffered saline (PBS) all other buffers were ordered from Sigma-Millipore. 41T aptamer at a concentration of either 316 nM, or 100 nM, or 31.6 nM, or 10 nM were mixed with variable concentrations PDGF-BB (from […] dilution factor) in 1× PBS containing 1 mM MgCl₂, and 0.1 mg/ml BSA on white 384 well PCR plate (BioRad) and subjected to the following thermal protocol on BioRad CFX384 qPCR instrument: lid at 95° C., melting curve step from 30° C. to 80° C. with images (FAM/SYBR channel) every 0.5° C., 10 seconds per step. FIG. 5 presents melting curves (left panels) and the first derivative (right panels) of thermal titration experiments. To estimate the relative populations of free aptamers and aptamers bound to the target (% bound), the areas under the curve of the first derivative (dRFU/dT) were integrated for both unbound (left peak with Tₘ˜55° C.) and bound (right peak with Tₘ˜65° C.) peaks. % bound as a function of the target concentration is presented as a dose response in FIG. 6.

PDGF-BB [2] = target: T1, PDGF-BB; assay: surface thermal melt; Tm about 32 C unbound to about 42 C bound; 0.75 mg/mL HSA, 40% DMSO; also bound peak about 55 C with 100 nM in human plasma without DMSO; details: chain copies: 2 (homodimer, inferred); label: 3' Cy3
Experimental: (§1) PDGF-BB and PDGF-AA were obtained from R&D Systems (Minneapolis, USA). Human serum albumine (HSA), phosphate buffered saline (PBS) and all other reagents were ordered from Sigma-Millipore. The aptamer was covalently linked to the solid support by spotting 4.5 μL of the 0.25 uM aptamer solution in 1× PBS buffer. The spots were incubated for 10 minutes to allow for surface immobilization and washed with 1× PBS buffer. Solutions with a variable amount of PDGF-BB or PDGF-AA (630 nM to 2 nM 3.16× dilution series or 300 nM to 75 nM 2× dilution series, respectively) and containing 0.75 mg/mL. HSA, 40% DMSO (v/v) were applied to the surface coated with the aptamers and incubated for 5 minutes at room temperature. The temperature was increased to 45° C. by placing the slide on a heating element. The change in fluorescence intensity of the modified aptamer was as a function of temperature was monitored by fluorescence microscope coupled to a CMOS sensor. FIGS. 9A and 10 presents normalized first derivative of the melting curves for PDGF-BB or PDGF-AA titration experiments, respectively. […]

PDGF-AA = PDGF-AA (UniProt P04085 P04085:87-211); assay: surface thermal melt, 75-300 nM PDGF-AA; no binding and no dose response; 0.75 mg/mL HSA, 40% DMSO; details: tags: R&D Systems; chain copies: 2 (homodimer, inferred); label: 3' Cy3
Experimental: as §1, with “The solid support consisted of coated ITO glass slides functionalized with azido groups (Sikemia, Grabels, France) to form a covalent bond between the DBCO-labeled aptamer and the surface. PDGF-BB and” for “PDGF-BB and”

T1 sequence (P01127 82-190, one chain of several): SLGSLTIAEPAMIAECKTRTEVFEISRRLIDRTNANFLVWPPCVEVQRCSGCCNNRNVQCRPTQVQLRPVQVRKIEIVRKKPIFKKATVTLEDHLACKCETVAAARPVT

| Binder | binding result (PDGF-BB [1]) | binding result (PDGF-BB [2]) | binding result (PDGF-AA) |
| --- | --- | --- | --- |
| TACTCAGGGCACTGCAAGCAATTGTGGTCCCAATGGGCTGAGTA (ssDNA) [41T aptamer (solution, FIG. 4A)] | binds |  |  |
| TTTTTTACTCAGGGCACTGCAAGCAATTGTGGTCCCAATGGGCTGAGTA (ssDNA, 5' DBCO-TEG via five-thymidine linker, thymine-linked Black Hole Quencher 2) [41T aptamer (surface-immobilized, FIG. 4B)] |  | binds | no binding |
